Data reported in patent publication EP1237001A1, “SCREENING METHOD” (Takeda Chemical Industries, Ltd., priority 1999, dated 2001).

Legend:
FM-3 [1] = target: T1, FM-3 (Homo sapiens, UniProt Q9HB89); conditions: labeled ligand; cells confirmed to express FM-3 on the cell membrane; Tan et al., Genomics 52, 223-229, 1998; cited from earlier work
T1 sequence (Q9HB89 24-426 limits assumed): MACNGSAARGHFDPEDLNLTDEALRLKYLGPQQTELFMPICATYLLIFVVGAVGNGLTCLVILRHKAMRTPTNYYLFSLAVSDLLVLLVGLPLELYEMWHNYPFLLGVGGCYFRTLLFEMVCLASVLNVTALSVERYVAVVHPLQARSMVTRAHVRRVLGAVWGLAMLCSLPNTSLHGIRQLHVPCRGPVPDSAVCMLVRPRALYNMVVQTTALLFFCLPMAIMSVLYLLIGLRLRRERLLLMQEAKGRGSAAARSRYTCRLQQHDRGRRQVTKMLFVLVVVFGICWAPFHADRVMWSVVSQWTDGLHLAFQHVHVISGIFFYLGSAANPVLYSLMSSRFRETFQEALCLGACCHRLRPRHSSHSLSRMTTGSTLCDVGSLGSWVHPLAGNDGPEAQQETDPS

FM-3 [2] = target: T1, FM-3; test: site sensor assay of cell-stimulating activity (extracellular acidification rate); format: cell-based; design: expressed in transfected cells; conditions: FM-3-expressing CHO cells versus mock CHO cells; exposure for 7 minutes and 2 seconds; 3 cycles before exposure set as 100 %; Fig. 1
Procedure: Pig Neuromedin U-8 at the concentration indicated in FIG. 1 was added to FM-3-expressing CHO cells (●) and mock CHO cells (○) for 7 minutes and 2 seconds in the site sensor assay. The maximum value of acidification rate in the reaction was plotted.
FM-3-expressing CHO cells and mock CHO cells, which were cultured in a cell-cultured container, were digested with trypsin and dissociated. The numbers of cells are counted. Then, the cells were inoculated in the capsules for site sensor (2.7 x 10^5 cells/capsule). After incubating them overnight, the capsules containing the cells were transferred to the sensor chamber for measurement, and then mounted to the workstation of the site sensor. The portion containing the cells was refluxed with low-buffered RMPI medium supplemented with 0.1% bovine serum albumin, and it was left still until the acidification rate became stable. The measurement of the acidification rate was made during pumping cycle of ON for 80 seconds and OFF for 40 seconds(2 minutes to one cycle). A rate of change in extracellular pH from 8 to 30 seconds after the pumping off was calculated as an acidification rate with the site sensor.
Pig Neuromedin-8 (BACHEM, H-5505, SEQ ID NO:5) was dissolved in distilled water at the concentration of 10mM, and then the gradually diluted solutions were prepared with low buffered RPMI medium containing 0.1% BSA. […]

FM-3 [3] = target: T2, FM-3 (Homo sapiens, UniProt Q9HB89); conditions: free intracellular calcium ion release measured as an index; Tan et al.; cited from earlier work
T2 sequence (Q9HB89 1-426): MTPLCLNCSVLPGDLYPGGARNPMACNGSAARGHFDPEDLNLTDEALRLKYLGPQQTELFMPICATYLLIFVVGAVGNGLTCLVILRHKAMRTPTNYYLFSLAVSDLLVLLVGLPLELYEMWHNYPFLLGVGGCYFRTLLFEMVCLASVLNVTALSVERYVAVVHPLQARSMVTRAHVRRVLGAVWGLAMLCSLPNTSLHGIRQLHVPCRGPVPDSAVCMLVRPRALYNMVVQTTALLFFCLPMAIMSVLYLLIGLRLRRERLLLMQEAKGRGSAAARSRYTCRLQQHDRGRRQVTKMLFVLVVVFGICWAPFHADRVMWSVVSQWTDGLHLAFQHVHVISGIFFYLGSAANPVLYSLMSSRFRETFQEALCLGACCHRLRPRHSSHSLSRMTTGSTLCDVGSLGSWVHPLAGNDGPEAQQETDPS

| Substance | activation of FM-3 (FM-3 [3]) | further results |
| --- | --- | --- |
| Neurotensin: labeled Neurotensin, peptide ligand of the Neurotensin receptor | – | binding with cells expressing FM-3 (FM-3 [1]): did not bind |
| Pig Neuromedin-8: pig Neuromedin U-8, peptide of 8 amino acid residues, BACHEM, H-5505, SEQ ID NO:5 | – | cell-stimulating activity (acidification rate) (FM-3 [2]): detected in a does-dependent manner and specific to FM-3-expressing CHO cells |
| VIP: vasoactive intestinal peptide, examined for activation of FM-3 | not detected | – |
| calcitonin: peptide examined for activation of FM-3 | not detected | – |
| endothelin | not detected | – |
| galanin: peptide examined for activation of FM-3 | not detected | – |
| growth hormone releasing hormone: peptide examined for activation of FM-3 | not detected | – |
| somatostatin: peptide examined for activation of FM-3 | not detected | – |
| thyrotropin releasing hormone | not detected | – |
